{
  "source": "patent US20070105771A1",
  "about": "(Y S THERAPEUTICS, published 2007)",
  "binders": {"B1": {"name": "rhuMAb 411 (antibody, human IgG1, kappa, V domains shown)", "VH": "EVQLVESGAGVKQPGGTLRLTCTASGFSLTTYGVHWVRQAPGKGLEWVGVIWGDGRTDYDAAFMSRVTISKDTSKSTVYLQMNSLRAEDTAVYYCMRNRHDWFDYWGQGTTVTVSS", "VL": "DILLTQSPSSLSATPGERATITCRASQGIRNNLNWYQQKPGQAPRLLIYYSSNLQSGVPSRFSGSGSGTDFTLTISRLQPEDVAAYYCQQSIKLPFTFGSGTKVEIKR", "notes": "also called X411"}},
  "experiment_in_all_cases": "peptide microarray",
  "key": {"[1]": {"molecular_target": "T1, human CD26-derived 13 mer peptide 118 (human)", "T1 peptide": "ATSIQITAPASML", "procedure": "(§1) The overnight incubation was followed by three washings with each of PBS buffer pH 7.5 and water. The microarrays were then scanned using ArrayWorx-Microarray Scanner.\n(§2) The SPOT recognition software package ArrayPro was used for data analysis. The mean of signal intensities from 3 identical subarrays on each microarray image was used for data evaluation."}, "[2]": {"molecular_target": "T2, human CD26-derived 13 mer peptide 61 (human)", "T2 peptide": "WNNDIYVKIEPNL", "procedure": "as §1, §2"}, "[3]": {"molecular_target": "T3, human CD26-derived 13 mer peptide 51 (human)", "T3 peptide": "IPNNTQWVTWSPV", "procedure": "as §1, §2"}, "[4]": {"molecular_target": "T4, human CD26-derived 13 mer peptide 7 (human)", "T4 peptide": "LRWISDHEYLYKQ", "procedure": "as §1, §2"}, "[5]": {"molecular_target": "T5, human CD26-derived 13 mer peptide 2 (human)", "T5 peptide": "KNTYRLKLYSLRW", "procedure": "as §1, §2"}, "[6]": {"molecular_target": "T6, human CD26-derived 13 mer peptide 59 (human)", "T6 peptide": "LAYVWNNDIYVKI", "procedure": "as §1, §2"}, "[7]": {"molecular_target": "T7, human CD26-derived 13 mer peptide 65 (human)", "T7 peptide": "IEPNLPSYRITWT", "procedure": "as §1, §2"}, "[8]": {"molecular_target": "T8, human CD26-derived 13 mer peptide 19 (human)", "T8 peptide": "GNSSVFLENSTFD", "procedure": "as §1, §2"}, "[9]": {"molecular_target": "T9, human CD26-derived 13 mer peptide 103 (human)", "T9 peptide": "VRVPYPKAGAVNP", "procedure": "as §1, §2"}, "[10]": {"molecular_target": "T10, human CD26-derived 13 mer peptide 119 (human)", "T10 peptide": "SIQITAPASMLIG", "procedure": "as §1, §2"}, "[11]": {"molecular_target": "T11, human CD26-derived 13 mer peptide 88 (human)", "T11 peptide": "FLAYAQFNDTEVP", "procedure": "as §1, §2"}, "[12]": {"molecular_target": "T12, human CD26-derived 13 mer peptide 41 (human)", "T12 peptide": "YTASYDIYDLNKR", "procedure": "as §1, §2"}, "[13]": {"molecular_target": "T13, human CD26-derived 13 mer peptide 105 (human)", "T13 peptide": "YPKAGAVNPTVKF", "procedure": "as §1, §2"}, "[14]": {"molecular_target": "T14, human CD26-derived 13 mer peptide 102 (human)", "T14 peptide": "KTVRVPYPKAGAV", "procedure": "as §1, §2"}, "[15]": {"molecular_target": "T15, human CD26-derived 13 mer peptide 49 (human)", "T15 construct": "also called TEERJPNNTQWVT", "T15 peptide": "TEERIPNNTQWVT", "procedure": "as §1, §2"}, "[16]": {"molecular_target": "T16, human CD26-derived 13 mer peptide 70 (human)", "T16 peptide": "TWTGKEDIIYNGI", "procedure": "as §1, §2"}, "[17]": {"molecular_target": "T17, human CD26-derived 13 mer peptide 43 (human)", "T17 peptide": "YDIYDLNKRQLIT", "procedure": "as §1, §2"}, "[18]": {"molecular_target": "T18, human CD26-derived 13 mer peptide 27 (human)", "T18 peptide": "HSINDYSISPDGQ", "procedure": "as §1, §2"}, "[19]": {"molecular_target": "T19, human CD26-derived 13 mer peptide 128 (human)", "T19 peptide": "DVTWATQERISLQ", "procedure": "as §1, §2"}, "[20]": {"molecular_target": "T20, human CD26-derived 13 mer peptide 4 (human)", "T20 peptide": "RLKLYSLRWISDH", "procedure": "as §1, §2"}, "[21]": {"molecular_target": "T21, human CD26-derived 13 mer peptide 100 (human)", "T21 peptide": "LQYPKTVRVPYPK", "procedure": "as §1, §2"}, "[22]": {"molecular_target": "T22, human CD26-derived 13 mer peptide 32 (human)", "T22 peptide": "DGQFILLEYNYVK", "procedure": "as §1, §2"}, "[23]": {"molecular_target": "T23, human CD26-derived 13 mer peptide 101 (human)", "T23 peptide": "YPKTVRVPYPKAG", "procedure": "as §1, §2"}, "[24]": {"molecular_target": "T24, human CD26-derived 13 mer peptide 17 (human)", "T24 peptide": "NAEYGNSSVFLEN", "procedure": "as §1, §2"}, "[25]": {"molecular_target": "T25, human CD26-derived 13 mer peptide 28 (human)", "T25 peptide": "INDYSISPDGQFI", "procedure": "as §1, §2"}, "[26]": {"molecular_target": "T26, human CD26-derived 13 mer peptide 24 (human)", "T26 peptide": "TFDEFGHSINDYS", "procedure": "as §1, §2"}, "[27]": {"molecular_target": "T27, human CD26-derived 13 mer peptide 64 (human)", "T27 peptide": "VKIEPNLPSYRIT", "procedure": "as §1, §2"}, "[28]": {"molecular_target": "T28, human CD26-derived 13 mer peptide 39 (human)", "T28 peptide": "WRHSYTASYDIYD", "procedure": "as §1, §2"}, "[29]": {"molecular_target": "T29, human CD26-derived 13 mer peptide 109 (human)", "T29 peptide": "PTVKFFVVNTDSL", "procedure": "as §1, §2"}, "[30]": {"molecular_target": "T30, human CD26-derived 13 mer peptide 33 (human)", "T30 peptide": "QFILLEYNYVKQW", "procedure": "as §1, §2"}, "[31]": {"molecular_target": "T31, human CD26-derived 13 mer peptide 30 (human)", "T31 peptide": "SISPDGQFILLEY", "procedure": "as §1, §2"}, "[32]": {"molecular_target": "T32, human CD26-derived 13 mer peptide 62 (human)", "T32 peptide": "NDIYVKIEPNLPS", "procedure": "as §1, §2"}, "[33]": {"molecular_target": "T33, human CD26-derived 13 mer peptide 37 (human)", "T33 peptide": "YVKQWRHSYTASY", "procedure": "as §1, §2"}, "[34]": {"molecular_target": "T34, human CD26-derived 13 mer peptide 35 (human)", "T34 peptide": "LEYNYVKQWRHSY", "procedure": "as §1, §2"}, "[35]": {"molecular_target": "T35, human CD26-derived 13 mer peptide 68 (human)", "T35 peptide": "SYRITWTGKEDII", "procedure": "as §1, §2"}, "[36]": {"molecular_target": "T36, human CD26-derived 13 mer peptide 112 (human)", "T36 peptide": "VVNTDSLSSVTNA", "procedure": "as §1, §2"}, "[37]": {"molecular_target": "T37, human CD26-derived 13 mer peptide 117 (human)", "T37 peptide": "TNATSIQITAPAS", "procedure": "as §1, §2"}, "[38]": {"molecular_target": "T38, human CD26-derived 13 mer peptide 89 (human)", "T38 peptide": "AYAQFNDTEVPLI", "procedure": "as §1, §2"}, "[39]": {"molecular_target": "T39, human CD26-derived 13 mer peptide 129 (human)", "T39 peptide": "TWATQERISLQWL", "procedure": "as §1, §2"}, "[40]": {"molecular_target": "T40, human CD26-derived 13 mer peptide 47 (human)", "T40 peptide": "RQLITEERIPNNT", "procedure": "as §1, §2"}, "[41]": {"molecular_target": "T41, human CD26-derived 13 mer peptide 5 (human)", "T41 peptide": "KLYSLRWISDHEY", "procedure": "as §1, §2"}, "[42]": {"molecular_target": "T42, human CD26-derived 13 mer peptide 22 (human)", "T42 peptide": "LENSTFDEFGHSI", "procedure": "as §1, §2"}},
  "data": [
    {"binder": "B1", "values": [
      {"measurement": "Mean Signal Value", "setting": "[1]", "result": 0},
      {"measurement": "Mean Signal Value", "setting": "[2]", "result": 0.0385},
      {"measurement": "Mean Signal Value", "setting": "[3]", "result": 0.856},
      {"measurement": "Mean Signal Value", "setting": "[4]", "result": 20.6},
      {"measurement": "Mean Signal Value", "setting": "[5]", "result": 16.5},
      {"measurement": "Mean Signal Value", "setting": "[6]", "result": 0.683},
      {"measurement": "Mean Signal Value", "setting": "[7]", "result": 40.8},
      {"measurement": "Mean Signal Value", "setting": "[8]", "result": 0},
      {"measurement": "Mean Signal Value", "setting": "[9]", "result": 0},
      {"measurement": "Mean Signal Value", "setting": "[10]", "result": 0.024},
      {"measurement": "Mean Signal Value", "setting": "[11]", "result": 0},
      {"measurement": "Mean Signal Value", "setting": "[12]", "result": 0.0673},
      {"measurement": "Mean Signal Value", "setting": "[13]", "result": 0},
      {"measurement": "Mean Signal Value", "setting": "[14]", "result": 0.0192},
      {"measurement": "Mean Signal Value", "setting": "[15]", "result": 0.962},
      {"measurement": "Mean Signal Value", "setting": "[16]", "result": 1},
      {"measurement": "Mean Signal Value", "setting": "[17]", "result": 0},
      {"measurement": "Mean Signal Value", "setting": "[18]", "result": 0.00481},
      {"measurement": "Mean Signal Value", "setting": "[19]", "result": 0.106},
      {"measurement": "Mean Signal Value", "setting": "[20]", "result": 51.3},
      {"measurement": "Mean Signal Value", "setting": "[21]", "result": 0.00962},
      {"measurement": "Mean Signal Value", "setting": "[22]", "result": 0.0192},
      {"measurement": "Mean Signal Value", "setting": "[23]", "result": 0.00481},
      {"measurement": "Mean Signal Value", "setting": "[24]", "result": 0.0625},
      {"measurement": "Mean Signal Value", "setting": "[25]", "result": 0.221},
      {"measurement": "Mean Signal Value", "setting": "[26]", "result": 0.00962},
      {"measurement": "Mean Signal Value", "setting": "[27]", "result": 0.438},
      {"measurement": "Mean Signal Value", "setting": "[28]", "result": 55.7},
      {"measurement": "Mean Signal Value", "setting": "[29]", "result": 0},
      {"measurement": "Mean Signal Value", "setting": "[30]", "result": 21.8},
      {"measurement": "Mean Signal Value", "setting": "[31]", "result": 6.26},
      {"measurement": "Mean Signal Value", "setting": "[32]", "result": 0.00481},
      {"measurement": "Mean Signal Value", "setting": "[33]", "result": 98.2},
      {"measurement": "Mean Signal Value", "setting": "[34]", "result": 84.7},
      {"measurement": "Mean Signal Value", "setting": "[35]", "result": 0},
      {"measurement": "Mean Signal Value", "setting": "[36]", "result": 0},
      {"measurement": "Mean Signal Value", "setting": "[37]", "result": 0.00962},
      {"measurement": "Mean Signal Value", "setting": "[38]", "result": 0},
      {"measurement": "Mean Signal Value", "setting": "[39]", "result": 23.3},
      {"measurement": "Mean Signal Value", "setting": "[40]", "result": 0},
      {"measurement": "Mean Signal Value", "setting": "[41]", "result": 43.1},
      {"measurement": "Mean Signal Value", "setting": "[42]", "result": 0.0192}
    ]}
  ]
}
